# Measured values reported in the RNAGym collection of RNA variant scans (doi:10.1073/pnas.2313332121).
# Variants at the floor of the assay were thinned out.
# B1: TPR 5TU (parent)
# chain: GGAUCUUCUCGAUCUAACAAAAAAGACAAAUCUGCCACAAAGCUUGAGAGCAUCUUCGGAUGCAGAGGCGGCAGCCUUCGGUGGCGCGAUAGCGCCAACGUUCUCAACUAUGACACGCAAAACGCGUGCUCCGUUGAAUGGAGUUUAUCAUG
# Variants of: B1
# Assay: polymerase ribozyme fitness, log enrichment relative to wild type (log ratio); higher = more active; in vitro selection for triplet polymerase activity
# Outline: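 To select mutant libraries of each subunit of a heterodimeric triplet polymerase ribozyme, built by PCR and transcribed, each was annealed with a biotinylated primer, partner subunit and triplets, then incubated frozen at −7 °C. Extended constructs were gel-excised, captured on streptavidin beads and amplified by RT-PCR, in one round carried out in triplicate. Illumina sequencing of input and output libraries kept genotypes with ≥10 input reads and ≥1 read per output. Fitness is the base-2 logarithm of genotype enrichment relative to wild-type enrichment, from inverse-variance-weighted replicate averages.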
row,Variant,polymerase ribozyme fitness (log ratio)
1,A37C A49C G59C G83C C95A A122U G143U A150G,≤ -4.2
2,A37C C43U G84A C114A U130G U151G,≤ -4.2
3,C36U A39U,-2.71
4,C36U C96G,-2.56
5,A37C A52C G84A,-3.24
6,A37C A41C U53G G59A G84A C103A U145A,≤ -4.2
7,C36U C85U G133A U135C,-4.18
8,A37C A40C G48C G74A G94A G126C G133A G136A A150U,≤ -4.2
9,A37C U55G G94A,0.0696
10,A37C G83U,-0.441
11,C36G U56A G94U A97C A120U C125U,≤ -4.2
12,C36U A41G G83C G84U C116U,-4.09
13,C36G G65A G83A A98C,≤ -4.2
14,A37C A40C A66U C75G G94U A120G C131G G141A,≤ -4.2
15,A37C A60C C69U C85A U146G,-3.76
16,A37C A64U A66G C85A A107G,≤ -4.2
17,A37C C105U,-0.652
18,C36U A52G U61A C95A A122U U144A,≤ -4.2
19,C36G G83U C125A G141C U145A,-4.09
20,C36G G84A,-4.19
21,C36G C95U,-3.45

row,Variant,polymerase ribozyme fitness (log ratio)
1,C36U A73U A138U G140C,≤ -4.2
2,A37C C95U,-2.04
3,A37C C95G,-2.69
4,A37C U55A C96U A113U A137U,-4.18
5,C36U G92C C116U C118U U144C,≤ -4.2
6,C36A U56G G68C A98G C103A A121U,≤ -4.2
7,A37C G62U G86U G100C A107G,≤ -4.2
8,A37C G59A G81A C96A,-2.74
9,A37C U77C G92A C96A U139C,≤ -4.2
10,C36U G50C C85A A110C,≤ -4.2
11,C36U C95G C108A,-3.89
12,A37C A49G C87U A115C,-3.32
13,C36A U55A A64U C96A C118G,≤ -4.2
14,C36U C38U G83A A121U,-1.34
15,C36U A60C C63U C103G,≤ -4.2
16,C36U C72U,-0.573
17,C36U C51G U55A G67A C93U,≤ -4.2
18,C36G G59U C105G,≤ -4.2
19,A37C G70A C85A G92A C93A,≤ -4.2
20,C36A U56G G141U,≤ -4.2
21,C36U C38A A91U C103A C116A,≤ -4.2

row,Variant,polymerase ribozyme fitness (log ratio)
1,C36U U145A G152A,-3
2,C36U U134G U148A,-4.04
3,C36A U56A,-3.62
4,A37C C95A A138C G141C,≤ -4.2
5,A37C G50U G59U G86U,-2.65
6,A37C C116G,-0.143
7,A37C G86A,-1.34
8,A37C G48A C51U G86C G88A,≤ -4.2
9,C36G U44G G71U C96A C108G G140C,≤ -4.2
10,C36U G50U C54U C99U,-4.14
11,C36U G81A C93G G136A,≤ -4.2
12,C36U G59A U82G A97U,-1.3
13,C36U C95U,-1.98
14,A37C U55A G133C U144A,-2.6
15,A37C A41G G86C G92U C95U,-3.05
16,C36U U102G C108A C116U A122G,≤ -4.2
17,C36A U82A A98G,-4.01
18,A37C A64C G71A C85A G126C,≤ -4.2
19,C36U G59C C95A,-1.64
20,C36U C87U G126A,-2.05
21,C36G U145A,-3.88

row,Variant,polymerase ribozyme fitness (log ratio)
1,C36G C87G A91C A98U C114U A119U A122G,≤ -4.2
2,C36U C69G A73G C87A G100U G112C G141C,≤ -4.2
3,A37C G70C C87U U127C,≤ -4.2
4,C36U A52G C69U C85U U109G C118A,-3.73
5,A37C G83U C93G A97G G100U,≤ -4.2
6,A37C G83A A122U C131U U134C,0.318
7,C36G U146G,-3.97
8,A37C C93U G136C G141U,-3.34
9,A37C C75G G80A C149G,≤ -4.2
10,C36U G46U G86U C105A G124U,-3.12
11,A37C G92A U146G,-4.01
12,A37C C95U C103G C118G,≤ -4.2
13,C36U C79A C87U A115C A122C C131G,≤ -4.2
14,C36A U45C C95U C114U A119U,≤ -4.2
15,C36U G141U A142C,≤ -4.2
16,C36A U56G C85U C93U G94C,≤ -4.2
17,C36U C54A C95G C108U U109C C116U,≤ -4.2
18,C36U C75G C96G A121U,≤ -4.2
19,C36G C99G C132U U146C,-4.06
20,C36U C93G C103G C129A G141C,≤ -4.2
21,C36U G94A C125A,-1.63
